Experimental data published in PMC9330529.

How the values were obtained:
[1] = molecular target: SARS-CoV-2 spike protein Delta (SARS-CoV-2 (Delta variant)) (UniProt P0DTC2); experiment: flow cytometry on Ni-NTA beads
[2] = molecular target: SARS-CoV-2 spike protein Delta (SARS-CoV-2 (Delta variant)) (UniProt P0DTC2); experiment: streptavidin bead fluorescence binding

Which Kd [1] does the source give for “CGCAGCACCCAAGAACAAGGACTGCTTAGGATTGCGATAGGTTCGGAAAAAAGGCGGGTTCCTAGACTTGTACTCAGCCT [S1B6C3-A5-S2A2C1]” here?
The Kd was 32.6 nM.

What about the Kd [2] of the same sequence?
Its Kd is 34.1 nM.
